Reference: paper PMC3520067

Molecular target: H3K4Me3 peptide
Assay: ITC

Kd | Substance
600 nM | MORC3 CW domain (domain or fragment)
1100 nM | recombinant SPIN1 (from UniProt Q9Y657 1-262) (natural protein)
